Test [1] has as its target ヒトCD40 (human CD40 expressed on cells) (human) (UniProt P25942). Description: cell-based or functional assay.
Test [2] concerns the target ヒトCD40ヒトFC (human CD40 extracellular region fused to human IgG1 FC) (human) (UniProt P25942). Description: SPR, BIAcore 2000; CD40 human FC immobilised on CM5; control IgG added first, then soluble CD40L 10 ug/ml; difference before and after CD40L. Background: Surface plasmon resonance follows binding to a sensor surface in real time, without labels.

The record followed here is patent JP2006342173A.

In the case of “5D12抗体 (mouse anti-human CD40 antibody, ATCC No.HB-11339)”, in test [1], the 扁桃腺B細胞の増殖抑制 ([3H]チミジン; flag標識CD40L+エンハンサー抗体刺激) stood at 50%.

In test [2], “可溶性CD40リガンド (soluble CD40 ligand, FLAG-tagged, ALEXIS CORPORATION) (from UniProt P29965 116-261)” showed a CD40Lの結合量 (RU) of 100 RU.
